Here are results for one protein from publication PMC8244287 (Current Research in Structural Biology, 2021).

For orientation: stoichiometry N means a count of units in the complex or per binding partner.

The series deals with the molecule itself. Put plainly: SDS-PAGE.

B1: BbZIP, zinc transporter from Bordetella bronchiseptica, full-length, N-terminal His6 (natural protein, UniProt A0A0H3LM39 1-309, looked up)
chain: MNQPSSLAADLRGAWHAQAQSHPLITLGLAASAAGVVLLLVAGIVNALTGENRVHVGYAVLGGAAGFAATALGALMALGLRAISARTQDAMLGFAAGMMLAASAFSLILPGLDAAGTIVGPGPAAAAVVALGLGLGVLLMLGLDYFTPHEHERTGHQGPEAARVNRVWLFVLTIILHNLPEGMAIGVSFATGDLRIGLPLTSAIAIQDVPEGLAVALALRAVGLPIGRAVLVAVASGLMEPLGALVGVGISSGFALAYPISMGLAAGAMIFVVSHEVIPETHRNGHETTATVGLMAGFALMMFLDTALG
For B1, the “stoichiometry N” value was 2.
